Laboratory results: patent publication US20200399344A1 (SHATTUCK LABS, published 2020)
Read-outs that look alike come from different tables or passages of the source.

B4: recombinant human CD2 protein (rhCD2-His) (receptor, UniProt P06729 25-209, looked up)
chain: KEITNALETWGALGQDINLDIPSFQMSDDIDDIKWEKTSDKKKIAQFRKEKETFKEKDTYKLFKNGTLKIKHLKTDDQDIYKVSIYDTKGKNVLEKIFDLKIQERVSKPKISWTCINTTLTCEVMNGTDPELNLYQDGKHLKLSQRVITHKWTTSLSAKFKCTAGNKVSKESSVEPVSCPEKGLD
notes: also called recombinant CD2 protein; not shown: His tag
B5: recombinant human CD58-Fc fusion protein (rhCD58-Fc) (Fc fusion, UniProt P19256 29-215, looked up)
chain: FSQQIYGVVYGNVTFHVPSNVPLKEVLWKKQKDKVAELENSEFRAFSSFKNRVYLDTVSGSLTIYNLTSSDEDEYEMESPNITDTMKFFLYVLESLPSPTLTCALTNGSIEVQCMIPEHYNSHRGLIMYSWDCPMEQCKRNSTSIYFKMENDLPQKIQCTLSNPLFNTTSSIILTTCIPSSGHSRHR
notes: Positive control; also called recombinant hCD58-Fc protein; not shown: Fc

Key:
[1] = target: T1, recombinant HLA-E-His protein (human, UniProt P13747 22-305, limits assumed); experiment: ELISA: the chimeric protein is the titrated coat (1:3), detection HLA-E-His (Novus NBP2-47435PEP), HRP Anti-6x-His-HRP
T1 construct: also called recombinant HLA-E (HLA-E-His); not shown: His tag
T1 sequence (P13747 22-305 limits assumed): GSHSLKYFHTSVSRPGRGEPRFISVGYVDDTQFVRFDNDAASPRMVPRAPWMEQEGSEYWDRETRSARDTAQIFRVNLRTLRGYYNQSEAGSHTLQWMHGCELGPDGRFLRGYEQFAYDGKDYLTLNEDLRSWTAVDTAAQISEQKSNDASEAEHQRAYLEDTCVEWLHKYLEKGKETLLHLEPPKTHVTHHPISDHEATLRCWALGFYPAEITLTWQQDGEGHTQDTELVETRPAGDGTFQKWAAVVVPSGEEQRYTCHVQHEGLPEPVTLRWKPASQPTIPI
Method: (§1) Similarly, increasing amounts of the hTGFBR2-Fc-NKG2A and hSLAMF6-Fc-NKG2A chimeric proteins chimeric proteins or a negative control protein was coated on plates. Recombinant HLA-E-His protein was added to the plates for capture by the plate-bound chimeric proteins or the negative control protein. The captured HLA-E-His protein was detected using an anti-6×-His-HRP antibody.

[2] = target: T2, recombinant human SLAMF6-Fc (rhSLAMF6-Fc) protein (human, UniProt Q96DU3 22-226); experiment: dual ELISA; coat rhSLAMF6-Fc, hSLAMF6-Fc-NKG2a titrated, detection HLA-E-His, Anti-His-6x-HRP; the signal needs both bindings
T2 construct: not shown: Fc
T2 sequence (looked up): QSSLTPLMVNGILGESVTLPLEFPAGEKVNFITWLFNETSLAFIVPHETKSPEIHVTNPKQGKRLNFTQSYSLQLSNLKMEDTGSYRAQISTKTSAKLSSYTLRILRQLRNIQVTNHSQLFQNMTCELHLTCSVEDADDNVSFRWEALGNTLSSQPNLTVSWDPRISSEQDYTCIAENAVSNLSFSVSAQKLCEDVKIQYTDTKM
Method: Increasing amounts of the hSLAMF6-Fc-NKG2A chimeric protein was added and detected using HLA-E-His. A chimeric protein comprising ECD of a type II transmembrane protein other than NKG2A was used as a negative control.
To understand whether the hSLAMF6-Fc-NKG2A chimeric protein can binds simultaneously to both hSLAMF6 and HLA-E, the following ELISA experiment was carried out. Briefly, and recombinant hSLAMF6 (rhSLAMF6-Fc) protein was coated on plates. Increasing amounts of the hSLAMF6-Fc-NKG2A chimeric protein was added to the plates for capture by the recombinant human SLAMF6-Fc (rhSLAMF6-Fc) protein. Further, recombinant HLA-E (HLA-E-His) protein was added to the plate for capture by hSLAMF6-Fc-NKG2A chimeric protein. The binding of the HLA-E-His protein was detected using an anti-His 6× HRP antibody.

[3] = target: T3, hCD2 expressed on CHO-K1/hCD2 cells (human, UniProt P06729 25-351); experiment: flow cytometry cell binding assay, CHOk1 cells, axis label GEO Mean - PE MFI
T3 construct: whole, on cells
T3 sequence (looked up): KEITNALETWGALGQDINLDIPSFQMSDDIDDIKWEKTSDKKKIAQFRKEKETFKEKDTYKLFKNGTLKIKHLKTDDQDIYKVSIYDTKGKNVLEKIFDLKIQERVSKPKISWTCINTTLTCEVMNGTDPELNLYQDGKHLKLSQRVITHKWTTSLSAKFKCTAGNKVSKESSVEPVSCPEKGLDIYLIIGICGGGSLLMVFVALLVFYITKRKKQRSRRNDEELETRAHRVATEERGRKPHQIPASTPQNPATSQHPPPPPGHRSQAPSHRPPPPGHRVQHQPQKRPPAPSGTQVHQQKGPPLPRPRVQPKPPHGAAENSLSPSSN

[4] = target: T1, recombinant HLA-E-His protein; experiment: ELISA: the chimeric protein is the titrated coat (1:3), detection HLA-E-His (Novus NBP2-47435PEP), HRP Anti-6x-His-HRP; remark: listed apart in the source
Method: as §1, with “In a complementary experiment,” for “Similarly,”, “hCD48-Fc-NKG2A, hCD58-Fc-NKG2A,” for “hTGFBR2-Fc-NKG2A”, “hCD80-Fc-NKG2A” for “hSLAMF6-Fc-NKG2A chimeric proteins”

[5] = target: T4, anti-human IgG antibody (plate-bound); experiment: ELISA (single sided Fc): coat Anti-Human IgG (H+L) Jax# 109-005-088, detection HRP Goat anti-human FCgamma
T4 construct: also called anti-human Fc antibody
Method: Anti-human IgG was coated on plates and increasing amounts of the indicated chimeric proteins were added to the plates. hIgG was used as a positive control, and mCD80-Fc-NKG2A was used as a negative control. The binding was detected using an anti-human Fcgamma HRP.
To understand whether the Fc linkers from the native chimeric proteins can be accessed by anti-human antibodies, ELISA-based assays were performed. For these assays, an anti-human IgG antibody was coated on plates and increasing amounts of the hCD86-Fc-NKG2A and hTGFBR2-Fc-NKG2A, mCD80-Fc-NKG2a chimeric proteins, and a human IgG antibody were added to the plates for capture by the plate-bound anti-human antibody. The human IgG antibody was used as a positive control and to generate a standard curve. The mCD80-Fc-NKG2a chimeric protein was included as a negative control as containing a non-human Fc domain. The protein bound to the anti-human IgG antibody was detected using an anti-human Fcgamma HRP.

[6] = target: B5; experiment: ELISA: coat rhCD2-His (Acro CD2-H5226), detection Anti-hFc-HRP
Method: (§2) Recombinant human CD2 (rhCD2) protein was coated on plates. Increasing amounts of the indicated chimeric proteins or Recombinant human CD58-Fc fusion protein (rhCD58-Fc) were added and detected using an anti-mFc-HRP (for mCD80-Fc-NKG2A) or anti-hFc-HRP (for rest of the proteins).
(§3) CD2 is a transmembrane protein in T cells that binds to its ligand CD58 on APC in humans and on CD48 in rodents. To understand whether the CD48 and CD58 parts of the hCD48-Fc-NKG2A, and hCD58-Fc-NKG2A chimeric protein can bind CD2, ELISA-based assays were performed. Briefly, recombinant human CD2 protein (rhCD2-His) was coated on plates and increasing amounts of the hCD48-Fc-NKG2A, hCD58-Fc-NKG2A, and mCD80-Fc-NKG2A chimeric proteins and recombinant hCD58-Fc protein was added to the plates for capture by the plate-bound recombinant CD2 protein. The […] chimeric protein served as a negative control and recombinant hCD58-Fc protein served as a positive control. The hCD48-Fc-NKG2A and hCD58-Fc-NKG2A, chimeric proteins and recombinant hCD58-Fc protein bound to the recombinant CD2 protein was detected using an anti-human Fc HRP. The mCD80-Fc-NKG2A chimeric protein bound to the recombinant CD2 protein was detected using an anti-mouse Fc HRP.

[7] = target: B4; experiment: as above
Method: as §2, §3

[8] = target: T5, recombinant human 2B4 protein (rh2B4-His) (human, UniProt Q9BZW8-2 22-221, limits assumed); experiment: ELISA: coat rh2B4-His (Sino 10042-H08H), detection Anti-hFc-HRP
T5 construct: also called recombinant 2B4-His protein; not shown: His tag
T5 sequence (looked up): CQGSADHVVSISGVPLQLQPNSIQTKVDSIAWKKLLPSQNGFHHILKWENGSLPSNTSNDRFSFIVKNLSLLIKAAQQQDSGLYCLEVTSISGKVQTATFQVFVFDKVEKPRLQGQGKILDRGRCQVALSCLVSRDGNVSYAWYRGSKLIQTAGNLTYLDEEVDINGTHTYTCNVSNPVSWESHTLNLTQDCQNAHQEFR
Method: Increasing amounts of the indicated chimeric proteins or rhCD48-Fc were added and detected using an anti-mFc-HRP (for mCD80-Fc-NKG2A) or anti-hFc-HRP (for rest of the proteins).
CD48 is the ligand for 2B4. To understand whether the CD48 parts of the hCD48-Fc-NKG2A chimeric protein can bind 2B4, ELISA-based assays were performed. Briefly, recombinant human 2B4 protein (rh2B4-His) was coated on plates and increasing amounts of the hCD48-Fc-NKG2A and mCD80-Fc-NKG2A chimeric proteins and recombinant human CD48-Fc (rhCD48-Fc) protein was added to the plates for capture by the plate-bound recombinant 2B4 protein. The hCD48-Fc-NKG2A chimeric protein and recombinant human CD48-Fc (rhCD48-Fc) protein bound to the recombinant 2B4 protein was detected using an anti-human Fc HRP. The mCD80-Fc-NKG2A chimeric protein, which was used as a negative control, bound to the recombinant 2B4 protein was detected using an anti-mouse Fc HRP.

B1: human SLAMF6-Fc-NKG2A chimeric protein (Fc fusion)
chain: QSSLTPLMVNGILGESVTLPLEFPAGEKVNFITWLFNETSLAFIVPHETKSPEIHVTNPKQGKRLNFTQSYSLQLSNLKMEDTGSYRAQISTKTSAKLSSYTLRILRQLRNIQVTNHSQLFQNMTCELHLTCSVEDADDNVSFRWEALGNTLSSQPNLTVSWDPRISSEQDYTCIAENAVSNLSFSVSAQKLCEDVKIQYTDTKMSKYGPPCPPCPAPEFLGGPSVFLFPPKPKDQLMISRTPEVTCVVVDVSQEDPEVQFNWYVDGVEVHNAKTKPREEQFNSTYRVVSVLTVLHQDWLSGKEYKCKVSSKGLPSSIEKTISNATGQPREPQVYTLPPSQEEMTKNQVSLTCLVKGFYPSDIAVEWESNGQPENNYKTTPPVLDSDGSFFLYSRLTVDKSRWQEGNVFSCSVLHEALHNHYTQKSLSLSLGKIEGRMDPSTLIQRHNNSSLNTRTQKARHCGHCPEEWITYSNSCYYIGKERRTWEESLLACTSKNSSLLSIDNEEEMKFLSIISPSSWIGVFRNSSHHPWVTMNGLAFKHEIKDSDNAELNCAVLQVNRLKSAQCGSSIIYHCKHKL
notes: also called hSLAMF6-Fc-NKG2A
- EC50 (read off the curve) [1]: ~6 µg/mL
- EC50 (read off the curve) [2]: ~30 µg/mL

B2: human CD58-Fc-NKG2A chimeric protein (Fc fusion)
chain: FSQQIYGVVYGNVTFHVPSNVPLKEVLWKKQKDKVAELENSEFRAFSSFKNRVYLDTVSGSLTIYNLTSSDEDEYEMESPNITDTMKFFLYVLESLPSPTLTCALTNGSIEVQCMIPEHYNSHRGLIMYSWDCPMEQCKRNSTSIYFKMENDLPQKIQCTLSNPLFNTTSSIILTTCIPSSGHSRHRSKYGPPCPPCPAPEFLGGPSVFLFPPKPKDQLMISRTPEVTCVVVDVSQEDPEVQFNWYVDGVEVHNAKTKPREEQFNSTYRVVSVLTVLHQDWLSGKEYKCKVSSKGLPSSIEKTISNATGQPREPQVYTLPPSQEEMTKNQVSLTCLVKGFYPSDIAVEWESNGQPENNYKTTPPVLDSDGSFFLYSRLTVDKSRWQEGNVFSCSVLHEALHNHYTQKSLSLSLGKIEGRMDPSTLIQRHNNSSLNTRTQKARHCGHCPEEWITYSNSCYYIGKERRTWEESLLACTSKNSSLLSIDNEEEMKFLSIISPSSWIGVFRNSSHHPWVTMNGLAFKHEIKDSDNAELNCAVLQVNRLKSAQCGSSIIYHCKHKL
notes: also called hCD58-Fc-NKG2A
- EC50 (read off the curve) [3]: ~1 µg/mL
- EC50 (read off the curve) [4]: ~0.7 µg/mL

B3: human TGFBR2-Fc-NKG2A chimeric protein (Fc fusion)
chain: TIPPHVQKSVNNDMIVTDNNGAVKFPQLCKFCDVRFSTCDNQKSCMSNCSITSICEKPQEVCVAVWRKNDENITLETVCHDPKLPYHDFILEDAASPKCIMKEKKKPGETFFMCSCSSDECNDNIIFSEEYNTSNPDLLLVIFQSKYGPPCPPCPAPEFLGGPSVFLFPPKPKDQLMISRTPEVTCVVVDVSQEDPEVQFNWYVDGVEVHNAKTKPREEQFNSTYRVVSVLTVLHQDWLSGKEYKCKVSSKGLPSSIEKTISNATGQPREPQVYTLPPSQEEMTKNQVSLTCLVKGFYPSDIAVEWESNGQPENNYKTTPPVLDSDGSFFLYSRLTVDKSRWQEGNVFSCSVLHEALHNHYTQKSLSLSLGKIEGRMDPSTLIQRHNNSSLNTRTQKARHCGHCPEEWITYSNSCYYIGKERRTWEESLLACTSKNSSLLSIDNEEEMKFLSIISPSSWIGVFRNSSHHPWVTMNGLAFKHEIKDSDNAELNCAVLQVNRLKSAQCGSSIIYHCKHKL
notes: also called hTGFBR2-Fc-NKG2A
- EC50 (read off the curve) [5]: ~10 µg/mL
- EC50 (read off the curve) [1]: ~5 µg/mL

Binder: B4
- binding result [6]: binds

Binder: B5
- EC50 (read off the curve) [7]: ~1 µg/mL

B6: recombinant human CD48-Fc (rhCD48-Fc) protein (Fc fusion, UniProt P09326 27-220, looked up)
chain: QGHLVHMTVVSGSNVTLNISESLPENYKQLTWFYTFDQKIVEWDSRKSKYFESKFKGRVRLDPQSGALYISKVQKEDNSTYIMRVLKKTGNEQEWKIKLQVLDPVPKPVIKIEKIEDMDDNCYLKLSCVIPGESVNYTWYGDKRPFPKELQNSVLETTLMPHNYSRCYTCQVSNSVSSKNGTVCLSPPCTLARS
notes: Comparator; not shown: Fc
- binding result [8]: binds
